Results reported in EP0488317A2.

Target: Bovine thrombin (bovine) (UniProt P00735)
Experiment: cell-based or functional assay

## r-UTM (from UniProt P07204 19-486)
  Coagulation time, substance 17 nM, bovine fibrinogen 1 mg/ml, bovine thrombin 18 nM; control 28.1 sec: 29.6 s
  IC50 of inhibition of coagulation of bovine fibrinogen (1 mg/ml) by bovine thrombin (18 nM): 80 nM
  clotting time, human fibrinogen 2.5 mg/ml, bovine thrombin 0.5 U/ml, ATIII (+) (human antithrombin III 250 ug/ml); control 49.5 sec: 80.8 s
  clotting time, human fibrinogen 2.5 mg/ml, bovine thrombin 0.5 U/ml, ATIII (-); control 43.3 sec: 61.8 s
